Reference: PMC6155142, “OCP–FRP protein complex topologies suggest a mechanism for controlling high light tolerance in cyanobacteria” (Nature Communications, 2018)
Changes are numbered by the printed parent chain. In names and notes the source's numbering stands. Several values for one entry are separate records, joined by “and”; a condition that tells them apart may be missing. Equal entries are not always repeated. Blank lines part the entries; values can stand above or below the molecule they belong to.

T1: oxidized FRPcc (L33C/I43C mutant of Synechocystis FRP), disulfide-trapped dimer (Synechocystis, UniProt P74103 1-109, L33C | I43C, intersubunit disulfide bridges between C33 and C43)
T1 sequence: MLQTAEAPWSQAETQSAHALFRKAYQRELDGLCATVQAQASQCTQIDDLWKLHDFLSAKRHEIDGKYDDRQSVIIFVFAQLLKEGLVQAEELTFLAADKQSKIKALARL

T2: OCP–F299C mutant of Synechocystis OCP (Synechocystis sp. PCC 6803, UniProt P74102 1-317, F299C)
T2 sequence (looked up): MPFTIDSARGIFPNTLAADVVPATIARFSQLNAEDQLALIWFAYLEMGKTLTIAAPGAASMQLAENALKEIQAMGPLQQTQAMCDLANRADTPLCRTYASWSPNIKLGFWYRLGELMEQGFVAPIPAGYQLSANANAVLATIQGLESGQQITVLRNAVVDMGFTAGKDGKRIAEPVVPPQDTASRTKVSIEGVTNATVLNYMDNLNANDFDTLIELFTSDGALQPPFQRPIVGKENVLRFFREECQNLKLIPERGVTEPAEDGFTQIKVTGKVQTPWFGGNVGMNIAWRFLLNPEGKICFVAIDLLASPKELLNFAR

T3: ∆NTE^O, orange form of Synechocystis OCP lacking the N-terminal extension (residues 1–20) (Synechocystis sp. PCC 6803, UniProt P74102 21-317)
T3 construct: orange carotenoid protein (OCP) of Synechocystis sp; PCC 6803 without the NTE (residues 1–20); also called ∆NTE^O monomer
T3 sequence (looked up): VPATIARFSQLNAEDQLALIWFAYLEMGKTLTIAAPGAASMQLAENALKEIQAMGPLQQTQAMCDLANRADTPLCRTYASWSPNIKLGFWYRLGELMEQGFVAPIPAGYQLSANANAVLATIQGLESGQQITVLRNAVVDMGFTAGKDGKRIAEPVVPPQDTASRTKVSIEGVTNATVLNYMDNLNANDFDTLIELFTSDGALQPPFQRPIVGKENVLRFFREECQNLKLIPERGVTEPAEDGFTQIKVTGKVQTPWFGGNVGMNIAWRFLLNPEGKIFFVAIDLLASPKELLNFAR

T4: OCP^Y201A/W288A, constantly active mutant of Synechocystis orange carotenoid protein (Synechocystis sp. PCC 6803, UniProt P74102 1-317, Y201A | W288A)
T4 construct: orange carotenoid protein (OCP) of Synechocystis sp; PCC 6803 with Y201A and W288A; also called OCP^AA
T4 sequence (looked up): T2 sequence (looked up) with Y201A, W288A, C299F

T5: COCP, individual C-terminal domain of Synechocystis OCP (amino acids 165–317) (Synechocystis sp. PCC 6803, UniProt P74102 165-317)
T5 construct: C-terminal domain of the orange carotenoid protein (OCP) of Synechocystis sp; PCC 6803, amino acids 165–317; also called CTD; individual CTD
T5 sequence (looked up): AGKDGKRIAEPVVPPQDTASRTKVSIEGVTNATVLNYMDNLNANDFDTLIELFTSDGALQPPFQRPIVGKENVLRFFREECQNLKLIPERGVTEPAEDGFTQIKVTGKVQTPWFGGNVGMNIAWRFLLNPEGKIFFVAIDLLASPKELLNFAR

B1: ∆NTE^O, orange form of Synechocystis OCP lacking the N-terminal extension (residues 1–20) (domain or fragment)
chain: T3 sequence (looked up)
B2: wild-type Synechocystis fluorescence recovery protein (FRP), His6-tagged, residues 1–109 (natural protein, UniProt P74103 1-109, looked up)
chain: T1 sequence with C33L, C43I
notes: fluorescence recovery protein (FRP) of Synechocystis, residues 1–109; cloned into pQE81L by BamHI/HindIII; Uncleavable tag; Dissociable dimer; also called FRPwt; wild-type FRP; not shown: His6, N-terminal, kept
B3: FRPcc (L33C/I43C mutant of Synechocystis FRP) under reducing conditions (natural protein, UniProt P74103 1-109, looked up)
chain: T1 sequence
notes: fluorescence recovery protein (FRP) of Synechocystis, residues 1–109, with L33C and I43C; made from the His6-tagged wild-type template; Cysteines reduced; dissociable dimer (dimeric above 10 µM load, partly dissociates on dilution); also called redFRPcc; not shown: His6, N-terminal, kept
B4: FRP–K102C mutant of Synechocystis FRP (natural protein, UniProt P74103 1-109, looked up)
chain: T1 sequence with C33L, C43I, K102C
notes: fluorescence recovery protein (FRP) of Synechocystis with K102C, from M1 (N-terminus after cleavage of the tag: GPDPATM1LQ…); the wild-type construct is residues 1–109; pQE81M vector; the His6 tag is cleavable by 3C protease and leaves GPDPAT before M1
B5: oxidized FRPcc (L33C/I43C mutant of Synechocystis FRP), disulfide-trapped dimer (natural protein, UniProt P74103 1-109, looked up)
chain: T1 sequence
modifications: intersubunit disulfide bridges between C33 and C43
notes: fluorescence recovery protein (FRP) of Synechocystis, residues 1–109, with L33C and I43C; made from the His6-tagged wild-type template; Same polypeptide as m3, but covalently fixed as a dimer that cannot monomerize; 22 N-terminal residues of the construct are absent from 4JDX; also called oxFRPcc; oxFRPcc dimer; source: E. coli T7 SHuffle express, purified in the absence of reducing agents, …

Tests used:
[1] = target: OCP(O) (Synechocystis sp.) (UniProt P74102); conditions: cited from earlier work
[2] = target: ∆NTE^O, orange form of Synechocystis OCP lacking the N-terminal extension (residues 1–20) (Synechocystis sp. PCC 6803) (UniProt P74102); assay: cross-linking; FRP species, ∆NTE^O or their mixtures in 20 mM Hepes-NaOH pH 7.5, 150 mM NaCl, 0.1 mM EDTA; 0.1% glutaraldehyde, 25 min, room temperature; 15% SDS-PAGE (no reducing agents with oxFRPcc); conditions: scale: FRP chains per OCP
[3] = target: T1, oxidized FRPcc (L33C/I43C mutant of …)
[4] = target: the molecule itself; assay: SEC; FRP species alone, 1–40 µM per monomer, pre-incubated at least 20 min at room temperature; Superdex 200 Increase 10/300; 20 mM Tris-HCl pH 7.6, 150 mM NaCl, 0.1 mM EDTA, 3 mM βME (reducing); dimer to monomers
[5] = target: T2, OCP–F299C mutant of Synechocystis OCP; assay: cell-based or functional assay
[6] = target: B1
[7] = target: T3, ∆NTE^O, orange form of Synechocystis …; assay: cross-linking; FRP species, ∆NTE^O or their mixtures in 20 mM Hepes-NaOH pH 7.5, 150 mM NaCl, 0.1 mM EDTA; 0.1% glutaraldehyde, 25 min, room temperature; 15% SDS-PAGE (no reducing agents with oxFRPcc); conditions: both partners purified
[8] = target: T4, OCP^Y201A/W288A, constantly active …; assay: SEC; redFRPcc or FRP-L49E (50 µM) pre-incubated with OCP^AA (37 µM), ∆NTE^O (6 µM) or COCP (8 µM); Superdex 200 Increase 10/300; 280 nm and carotenoid-specific absorbance; conditions: both partners purified
[9] = target: T3, ∆NTE^O, orange form of Synechocystis …; assay: as above; conditions: both partners purified
[10] = target: T5, COCP, individual C-terminal domain of …; assay: as above; conditions: both partners purified
[11] = target: T2, OCP–F299C mutant of Synechocystis OCP; assay: cross-linking; disulfide trapping: OCP–F299C apoform mixed with FRP–F76C or FRP–K102C, oxidized in the dark by dialysis at 4 °C against GSH/GSSG (or 30–60 min with 10–50 mM H2O2); SDS-PAGE with or without 20 mM βME; conditions: both partners purified
[12] = target: T3, ∆NTE^O, orange form of Synechocystis …; assay: SAXS; oxFRPcc alone (1.7 mg ml^−1) and the ∆NTE^O–oxFRPcc complex (2.41 mg ml^−1, ~40 µM); batch mode, 10 °C, SEC buffer with 3% glycerol, no reducing agents; conditions: both partners purified
[13] = target: the molecule itself; assay: as above

Molecule: FRP (from UniProt P74103)
Kd [1]: 35000 nM

stoichiometry N [2]: 1 and 2
Molecule: FRP homolog from Anabaena variabilis (natural protein)

Molecule: B1
Kd [3]: 220 nM

Molecule: B2
stoichiometry N [4]: 2
acceleration of the R–O conversion of photoactivated OCP–F299C at 25 °C [5]: ~20 fold
Kd [6]: 190 nM
stoichiometry N [7]: 1 FRP chains per OCP (printed as OCP:FRP 1:1) and 2 FRP chains per OCP (printed as OCP:FRP 1:2)

Molecule: B3
stoichiometry N [4]: 2
binding result [8]: binds
binding result [9]: binds
binding result [10]: binds

Molecule: B4
stoichiometry N [11]: 1 FRP chains per OCP (printed as 1:1)

Molecule: B5
stoichiometry N [12]: 2 FRP chains per OCP (printed as 2:1)
stoichiometry N [13]: 2
stoichiometry N [7]: 2 FRP chains per OCP (printed as OCP:FRP 1:2) and 1 FRP chains per OCP (printed as OCP:FRP 2:2)
